# Results published in US20240309087A1 (SHANGHAI JUNSHI BIOSCIENCES, published 2024).
# T1: recombinant cynomolgus monkey CD112R antigen (cynomolgus monkey, UniProt A0A2K5WVV8 1-322)
# T1 construct: bought
# T1 sequence: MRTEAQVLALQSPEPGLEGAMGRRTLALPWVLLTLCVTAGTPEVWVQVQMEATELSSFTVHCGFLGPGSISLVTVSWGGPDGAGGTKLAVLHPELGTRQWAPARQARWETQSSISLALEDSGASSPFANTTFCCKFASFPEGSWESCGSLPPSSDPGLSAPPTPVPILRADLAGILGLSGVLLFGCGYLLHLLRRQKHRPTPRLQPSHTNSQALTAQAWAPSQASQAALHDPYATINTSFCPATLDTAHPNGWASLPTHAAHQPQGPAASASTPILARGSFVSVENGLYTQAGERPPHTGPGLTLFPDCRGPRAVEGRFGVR
# T2: hCD112R mFC recombinant protein (human; murine, UniProt Q6DKI7 41-160)
# T2 construct: range 41-160; expressed in 293E cells; also called hCD112R ECD mFC; hCD112R-ECD-mFC; not shown: murine IgG2a Fc domain (MX2-mFc vector)
# T2 sequence (looked up): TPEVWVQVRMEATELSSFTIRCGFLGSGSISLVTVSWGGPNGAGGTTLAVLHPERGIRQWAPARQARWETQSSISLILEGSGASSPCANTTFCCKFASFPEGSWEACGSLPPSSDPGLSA
# T3: human CD112R on Jurkat CD112R effector cells (human, UniProt Q6DKI7 1-326)
# T3 sequence (looked up): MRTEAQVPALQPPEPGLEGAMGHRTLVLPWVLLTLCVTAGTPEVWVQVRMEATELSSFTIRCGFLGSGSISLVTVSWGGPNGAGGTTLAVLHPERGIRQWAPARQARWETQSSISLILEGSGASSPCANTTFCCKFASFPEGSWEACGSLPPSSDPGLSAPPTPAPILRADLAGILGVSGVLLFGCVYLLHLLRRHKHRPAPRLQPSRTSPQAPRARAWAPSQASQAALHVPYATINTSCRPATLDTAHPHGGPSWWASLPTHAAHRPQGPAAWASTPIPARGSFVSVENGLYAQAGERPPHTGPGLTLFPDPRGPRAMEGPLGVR
# T4: human CD112R on CHO-CD112R cells (human, UniProt Q6DKI7 41-326)
# T4 construct: whole, on cells; also called hCD112R; PVRIG
# T4 sequence (looked up): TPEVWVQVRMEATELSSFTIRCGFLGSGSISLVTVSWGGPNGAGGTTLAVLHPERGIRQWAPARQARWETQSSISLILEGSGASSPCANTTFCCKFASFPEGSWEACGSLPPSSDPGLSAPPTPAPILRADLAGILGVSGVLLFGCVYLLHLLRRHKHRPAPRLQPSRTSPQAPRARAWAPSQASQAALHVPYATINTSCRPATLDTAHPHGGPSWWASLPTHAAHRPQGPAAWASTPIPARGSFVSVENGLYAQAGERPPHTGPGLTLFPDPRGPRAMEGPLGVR
# What was measured:
# [1] = molecular target: T1, recombinant cynomolgus monkey CD112R …; assay: ELISA, coated cynomolgus monkey CD112R; EC50 Ref/EC50 antibody
# Procedure: (§1) A plate was coated with a recombinant cynomolgus monkey CD112R antigen (Acrobiosystems, Cat No. PVG-C5259) at a fixed concentration, and the chimeric anti-CD112R antibodies diluted in a gradient (initial concentration: 1 μg/mL, 2.5-fold gradient dilution, 12 concentration gradients in total) were added to bind to the antigen. Horseradish peroxidase (HRP)-conjugated mouse anti-human IgG4 Fc (Southern Biotech, 9200-05) was subjected to a 5000-fold dilution and used as a detection antibody for detection. The color development was performed with 0.1 mg/mL TMB, and finally stopped with 2 M hydrochloric acid. The plate was read at 420 nm/620 nm. EC₅₀ was obtained by fitting with a four-parameter logistic regression (4PL) model.
# [2] = molecular target: T2, hCD112R mFC recombinant protein; assay: FACS competition, hCD112R mFc on CHO CD112 cells
# Procedure: (§2) Cells CHO CD112 overexpressing human CD112 were co-incubated with a hCD112R mFc protein solution (5 μg/mL) prepared in a staining buffer (PBS+1% FBS), and the chimeric anti-CD112R antibodies or the control antibodies at different concentrations (initial concentration: 100 μg/mL, 3-fold dilution, 10 concentration gradients) at 4° C. for 30 min. Unbound antibodies were then washed with a staining buffer and the cells were incubated with 1% (v/v) goat anti-mouse IgG Fc fluorescent secondary antibodies (Jackson ImmunoResearch) prepared in a staining buffer at 4° C. for 30 min in the dark. Finally, the cells were collected by using a flow cytometer (BD Canto II), and the fluorescent antibodies bound to the cell surface were detected. Raw data were analyzed by using FlowJo to obtain MFI values, and a four-parameter curve fitting was performed by using GraphPad Prism software to obtain IC₅₀ values. The positive control and the negative control were Ref (anti-CD112R antibody, University of Colorado, obtained by expression and purification according to the sequences in US20170240613) and the anti-KLH hu-IgG4 antibody, respectively.
# As shown in FIG. 5 (a and b) and Table 8, the following 13 chimeric antibodies were all capable of effectively blocking the binding of the CD112R protein to CHO-CD112 cells.
# [3] = molecular target: T2, hCD112R mFC recombinant protein; assay: FACS competition, hCD112R mFc on CHO CD112 cells; ratio Ref/antibody
# Procedure: as §2
# [4] = molecular target: T3, human CD112R on Jurkat CD112R effector …; assay: cell-based or functional assay
# [5] = molecular target: T4, human CD112R on CHO-CD112R cells; assay: FACS on CHO-CD112R cells
# Procedure: (§3) CHO-CD112R cells (constructed in-house by Junshi, the amino acid sequence of CD112R in the construction of stable cell lines overexpressing CD112R comprises amino acids at positions Met1-Arg326 under NCBI accession No. Q6DKI7) overexpressing human CD112R were incubated with each of the chimeric anti-CD112R antibodies at different concentrations (initial concentration: 50 μg/mL, 5-fold dilution, 12 concentration gradients in total) at 4° C. for 30 min, and then washed and incubated with a fluorescence-labeled secondary antibody at 4° C. for 30 min in the dark. Finally, the cells were collected by using a flow cytometer (BD Canto II), and the fluorescent antibodies bound to the cell surface were detected. Raw data were analyzed by using FlowJo to obtain MFI values, the antibody dose-dependent binding curves were fitted by using GraphPad (FIG. 3, a and b) and EC₅₀ was calculated (Table 3). The positive control and the negative control were Ref (anti-CD112R antibody, University of Colorado, obtained by expression and purification according to the sequences in US20170240613) and anti-KLH hu-IgG4 antibody, respectively.
# [6] = molecular target: T1, recombinant cynomolgus monkey CD112R …; assay: ELISA, coated cynomolgus monkey CD112R
# Procedure: as §1
# [7] = molecular target: T2, hCD112R mFC recombinant protein; assay: FACS blocking: hCD112R mFc (5 µg/mL) binding to human CD112 on CHO CD112 cells, MFI-APC; unit from the axis (µg/mL), Table 8 says ng/ml
# Procedure: as §2
# [8] = molecular target: T4, human CD112R on CHO-CD112R cells; assay: FACS on CHO-CD112R cells; EC50 Ref/EC50 antibody
# Procedure: as §3
Binder,Relative activity (%) [1] [%],IC50 [2] [µg/mL],Relative activity (%) [3] [%],"EC50, CD112R/CD112 reporter [4] [µg/mL]","Relative activity (%), EC50 Ref/EC50 antibody [4] [%]",EC50 [5] [µg/mL],EC50 [6] [µg/mL],IC50 [7] [µg/mL],Relative activity (%) [8] [%]
"Chi-46 (antibody, V domains shown, chimeric) VH: DVKLVESGGGLVKLGGSLKLSCAASGFTFSSYHMSWVRQTPEKRLELVAAINSNVISTYYLDTVKGRFTISRDNAKNTLYLQMSSLKSEDTALYYCARHEDYYGFAMDYWGQGTSVTVSS VL: SIVMTQTPKFLLVSAGDRVTITCKASQSVSNDVAWYQQKPGQSPKLLMYYVSNRFTGVPDRFTGSGYGTDFTFTINTVQAEDLAVYFCQQAYRSPWTFGGGTKLEIK",107,0.8,132,0.00701,4610,0.433,0.00326,0.8,388
"Chi-53 (antibody, V domains shown, chimeric) VH: DVKLVESGGGLVKLGGSLKLSCAASGFTFSSYHMSWIRQTPEKRLELVAAINSNGINTYYLDTVKGRFTISRDNAKNTLYLQMSSLKSEDTALYYCARHEDYYGFAMDYWGQGTSVTVSS VL: SIVMTQTPKFLLVSAGDRVTITCKASQSVSNDVAWYQEKPGQSPKLLMYYVSHRFTGVPDRFTGSGYGTDFTFTINTVQAEDLAVYFCHQAYRSPWTFGGGTKLEIK",106,0.979,108,0.0129,2430,0.627,0.0033,0.979,268
"Chi-71 (antibody, V domains shown, chimeric) VH: DVQLVESGGGLVKLGGSLKLSCVASGFTFSSYHMSWIRQTPEKRLELVAAINSNDINTYYLDTVKGRFTISRDIAKNTLHLQMSSLKSEDTALYYCARHEDYYGFAMDYWGQGTSVTVSS VL: SIVMTQTPKFLLVSAGDRVTITCKASQSVTNDVAWYQQKPGQSPKLLMYYVSNHYTGVPDRFIGSGYGTDFTFTISTVQAEDLAVYFCQQAYRSPWTFGGGTKLEIK",94.8,0.733,144,0.0194,1470,0.205,0.00442,0.733,2090
"Chi-62 (antibody, V domains shown, chimeric) VH: DVKLVESGGGLVKLGGSLKLSCAASGFTFSSYHMSWVRQTPEKRLELVAAISRDGDSTYYPDTVKGRFTISRDDAENTLYLQMSSLKSEDTALYYCSRHEDYFGFAMDSWGQGTSVTVSS VL: SIVMTQTPKFLLVSAGDRVTITCKASQSVSNDVAWYQQKPGQSPKLLMYYVSNRFTGVPDRFTGSGYGTDFTFTINTVQAEDLAVYFCQQAYRSPWTFGGGTKLEIK",113,0.964,110,0.0129,2350,0.214,0.00371,0.964,2000
"Chi-55 (antibody, V domains shown, chimeric) VH: DVKLVESGGGLVKLGGSLKLSCAASGFTFSSYHMSWIRQTPEKRLELVAAINSNGINTYYLDTVKGRFTISRDNAKNTLYLQMSSLKSEDTALYYCARHEDYYGFAMDYWGQGTSVTVSS VL: SIVMTQTPKFLLVSAGDRVTITCKASQSVTNDVAWYQQKPGQSPKLLMYYVSNHYTGVPDRFIGSGYGTDFTFTISTVQAEDLAVYFCQQAYRSPWTFGGGTKLEIK",100,1.02,104,0.0131,2310,0.14,0.00419,1.02,3050
"Chi-47 (antibody, V domains shown, chimeric) VH: DVKLVESGGGLVKLGGSLKLSCAASGFTFSSYHMSWVRQTPEKRLELVAAINSNVISTYYLDTVKGRFTISRDNAKNTLYLQMSSLKSEDTALYYCARHEDYYGFAMDYWGQGTSVTVSS VL: SIVMTQTPKFLLVSAGDRVTITCKASQSVTNDVAWYQQKPGQSPKLLMYYVSNHYTGVPDRFIGSGYGTDFTFTISTVQAEDLAVYFCQQAYRSPWTFGGGTKLEIK",113,0.876,121,0.014,2230,0.28,0.00309,0.876,600
